These results are taken from the nanobody polyreactivity screen of Harvey et al. (2022).

A short description of the data set: yeast display, Sf9 membrane polyspecificity reagent, FACS + sequencing; frameworks hold sequencing errors. The essentials:
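Genes from sorted yeast were amplified by colony PCR, read by MiSeq 2 × 250 sequencing and filtered on CDR length. These cells carried a synthetic nanobody library in Saccharomyces cerevisiae BJ5465 and were sorted by FACS into low and high (top ~1%) gates on anti-HA and streptavidin fluorescence. Polyreactivity is labelled according to the gate of origin.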
For “QVQLVESGGGLVQAGGSLRLSCAASGRTLLPNALGWYRQAPGKERELVASIRDGGDTNYADSVKGRFTISRDNAKKTVYLQMNSLQPEDTGVYYCNADWWAYYSFGHEYWGLGTQVTVSS”, the “polyreactivity (PSR sort gate)” value was “low polyreactivity”.

Regarding “QVQLVESGGGLVQAGCSLRLSCAASGRIFGTNDMGWYRQAPGKERELVAAINGSDSSTYYADSVKGRFTISRDNAKNTVYFQMNSLKPEDTAVYYCNADWSGAPERSTDGYDYWGQGTQVTVSS”, the “polyreactivity (PSR sort gate)” value is on record as “low polyreactivity”.

With “QVQIVESGGGLVQAGGSLRLSCDASGSIFGRNAMGWYRQAPGKERELVAAITRTGGRTYYPDSVKGRITISRDNAKNTVYLQMNSLKPEDTEVKYCARYGGYWSLKYDYWGQGTQVTVSS”, the “polyreactivity (PSR sort gate)” value was “high polyreactivity”.

Turning to “QVQLVESGGGLVQAGGSLRLSCAASGSIFQNYAMGWYRQAPGKERELVAAINDDSTYYADSVKGRFTISRDNAKNTVYLQMNSLKPEDTAVYYCNAEDYVTLKIDLSWPYGYWGQGTQVTVSS”, the “polyreactivity (PSR sort gate)” value is “low polyreactivity”.

For the sequence “QVQLVESGGGLVQAGGSLRLSCAASGSIFYENMGWYRQSPRKERELVASISWSGTSTYADSVKGRFTISRDNAKNTVYLQMNSLKPEDSAVYYCAAGKNGYTYSRSYSYGYWGQGTQVTVSS”, the “polyreactivity (PSR sort gate)” value was “high polyreactivity”.

Regarding “QVQLVESGGGLVQAGGSLRLSCAASGLMFTRYAMGWYRQAPGKERELVAAISITGGSTYYADSVKGRFTFSRDNAKNTVYLQMNSLKPEDTAVYYCAAQRQVTTGIYGYWGQGTQVTVSS”, the “polyreactivity (PSR sort gate)” value was “high polyreactivity”.

In the case of “QVQLVESGGGLVQAGGSLRLSCAASGFIFAAYAMGWYRQAPGKERELVAAISGSGGRTYYADSVKGRFTISRDNAKNTVYLQMNSLKPEDTAVYYCATPPGYPPGSIKWSRFGYWGQGTQVTVSS”, the “polyreactivity (PSR sort gate)” value is “high polyreactivity”.

With “QVQLVESGGGLVQAGGSLRLSCAASGIIFQQYAMGWYRQAPGKERELVAAITYSGDGTYYADSVKGRFTISRDNAKNTVYLQMNSLKPEDTAVYYCAADVGYFKSDYWGQGTQVTVSS”, the “polyreactivity (PSR sort gate)” value was “low polyreactivity”.

On to “QVQLVESGGGLVQAGGSLRLSCAASGSTFIGHAMGWYRQAPGIERELVATITSGDSTYADSVKGRFTISRDNAKNTVYLQMNSLKPEDTAVYYCNADPWDIGSSFELDYWGQGTQLTVSS”, for which the “polyreactivity (PSR sort gate)” value was “low polyreactivity”.

As to “QVQLVESGGGLVQAGGSLRLSSAASGRIFSINVMGWYRHAPGKERELVAAISKRGGSTYYADSVKGRFTISRDNAKNTVYLQMNSLKPEDTAVYYCAVDRYSTDRVKTSYGYDYWGQGTQVTVSS”, the “polyreactivity (PSR sort gate)” value is on record as “high polyreactivity”.

Turning to “QVQLVESGGGLVQAGGSLRLSCAASGRIFGHYAMGWYRPAPGKERELVAAISTGGSTYYADSVKGRFTISRDNAKNTVYFQMNSLKPEDTAVYFCNKRPVRRKYDYWGQGTHVTVSS”, the “polyreactivity (PSR sort gate)” value was “low polyreactivity”.

In the case of “QVQLVESGGGLVQAGGSLRLSCAASGRTFAIYVMGWYRQAPGKERELVAAISRSGGNTYYADSVKGRFTISRDNAKNTVYLQMNSLKPEDTAVYYCAARVRERYYWGQGTQVTVSS”, the “polyreactivity (PSR sort gate)” value is reported as “high polyreactivity”.

As to “QVQLVESGGGLVQAGGSLRLSCAASGHTLAVNAKGWYRQATGKERELVAAITRSGVTTSYADSVKGRFTISRDNAKNTVYLQMNSLKPEDTAVYYCAAQLDASYLTGGWRRHYNYWGQGTQVTVSS”, the “polyreactivity (PSR sort gate)” value was “low polyreactivity”.

For the sequence “QVQLVESGGGLVQAGGSLRLSCAASGRTFSGNARGWYRQAPGKERELVATITRRGGSTYYADSVKGRFTISRDNAKNTVYLQMNSLKPEDTAVYYCAARRVVNGGQGYESWGQGTQVTVSS”, the “polyreactivity (PSR sort gate)” value is “high polyreactivity”.

Turning to “QVQLVESGGGLVQAGGSLRLSCAASGSIIVDNAMGWYRQAHGKERELVAAITDSGGRTYYADSVKGRYTISRDNAKNTVYLQMNSLKPEDTAVYYCNKQYIYTGRYSDGFDYCGQGTQVTVSS”, the “polyreactivity (PSR sort gate)” value was “low polyreactivity”.

Consider “QVQLVESGGGLVQAGGSLRLSCAASGFTFTYYSMGWYRQAPGKERELVARINSCGNTNYADSVKGRFTISRDNAKNTVYLQMNSLKPEDTAVYSCARDACNRYDYWGQGTQVTVSS”, for which the “polyreactivity (PSR sort gate)” value was “low polyreactivity”.
